Reference: the Immune Epitope Database (IEDB)

What was measured:
HLA-A*01:01 = experiment: IEDB peptide-MHC binding, purified MHC/direct/fluorescence; filed as Kd, often an IC50 or EC50 that approximates it; ≥ and ≤ were set here for values at or beyond the usual limits of such assays; conditions: source organism: Camelpox virus M-96
HLA-A*02:01 = experiment: as above; conditions: source organism: Camelpox virus M-96
HLA-A*26:01 = experiment: as above; conditions: source organism: Variola virus
HLA-A*31:01 = experiment: as above; conditions: source organism: Camelpox virus M-96
HLA-A*80:01 = experiment: as above; conditions: source organism: Camelpox virus M-96
HLA-B*15:01 = experiment: as above
HLA-B*15:09 = experiment: as above; conditions: source organism: Variola virus
HLA-B*27:05 = experiment: as above; conditions: source organism: Camelpox virus M-96
HLA-B*39:01 = experiment: as above; conditions: source organism: Variola virus
HLA-B*40:01 = experiment: as above; conditions: source organism: Camelpox virus M-96
HLA-B*46:01 = experiment: as above
HLA-B*48:01 = experiment: as above; conditions: source organism: Camelpox virus M-96
HLA-B*57:01 = experiment: as above; conditions: source organism: Camelpox virus M-96
HLA-B*58:01 = experiment: as above; conditions: source organism: Camelpox virus M-96
HLA-A*03:01 = experiment: IEDB peptide-MHC binding, purified MHC/competitive/fluorescence; filed as Kd, often an IC50 or EC50 that approximates it; ≥ and ≤ were set here for values at or beyond the usual limits of such assays; conditions: source organism: Taterapox virus
HLA-A*11:01 = experiment: as above; conditions: source organism: Taterapox virus
HLA-A*69:01 = experiment: as above; conditions: source organism: Taterapox virus
HLA-B*15:17 = experiment: as above; conditions: source organism: Taterapox virus
HLA-B*15:02 = experiment: IEDB peptide-MHC binding, purified MHC/direct/fluorescence; filed as Kd, often an IC50 or EC50 that approximates it; ≥ and ≤ were set here for values at or beyond the usual limits of such assays; conditions: source organism: Convict Creek 107 virus
[1] = source organism: Camelpox virus M-96
[2] = source organism: Convict Creek 107 virus

NTDAFSREY
Kd (HLA-A*01:01): 0.007 µM
Kd (HLA-A*02:01): ≥ 20 µM
Kd (HLA-A*26:01): 0.984 µM
Kd (HLA-A*31:01): ≥ 20 µM
Kd (HLA-A*80:01): 0.567 µM
Kd (HLA-B*15:01; [1]): ≥ 20 µM
Kd (HLA-B*15:09): ≥ 20 µM
Kd (HLA-B*27:05): ≥ 20 µM
Kd (HLA-B*39:01): ≥ 20 µM
Kd (HLA-B*40:01): ≥ 20 µM
Kd (HLA-B*46:01; [1]): ≥ 20 µM
Kd (HLA-B*48:01): ≥ 20 µM
Kd (HLA-B*57:01): ≥ 20 µM
Kd (HLA-B*58:01): ≥ 20 µM
Kd (HLA-A*03:01): ≥ 20 µM
Kd (HLA-A*11:01): ≥ 20 µM
Kd (HLA-A*69:01): ≥ 20 µM
Kd (HLA-B*15:17): ≥ 20 µM

VLFKTESGF
Kd (HLA-B*15:01; [2]): 0.0118 µM
Kd (HLA-B*15:02): 0.047 µM
Kd (HLA-B*46:01; [2]): ≥ 20 µM
